Experimental data: patent publication US10759863B2, “Modulation of γδ T cells” (Sanford Burnham Prebys Medical Discovery Institute, priority 2013, dated 2020)

Key:
RORγt = assay: Digoxin treatment of RORγt-expressing Jurkat cells, BTLA expression; type: cell-based; conditions: digoxin vs DMSO, 24-48 hrs, FIG. 11B
Method: (§1) Surface staining was performed on ice for 20-30 min. Intracellular staining was performed using the BD Cytofix/Cytoperm™ Kit according the manufacturer's instructions (BD Biosciences). Stained cells were acquired using a BD LSRFortessa™ equipped with 4 lasers (blue at 488 nm, yellow-green at 561 nm, red at 640 nm, violet at 405 nm). Antibodies in SI.
For qRT-PCR analysis, total RNA was prepared from FACS sorted populations using the Qiagen RNeasy Mini kit according to the manufacturer's instructions (Qiagen, Valencia, Calif.). RNA was reverse transcribed into cDNA using the iScript™ cDNA synthesis kit (Bio-Rad Laboratories, Hercules, Calif.) according to the manufacturer's instructions. Target genes were detected using intron-spanning primers (Invitrogen) and relative expression was measured using Power® SYBR Master mix (Life Technologies, Grand Island, N.Y.). Reactions were carried out in clear 384 plates using an ABI® 7900 Real-Time PCR System (Life Technologies). We calculated relative expression as follows: 2^−Dct, where Ct=cycle number, DCt=Ct (target gene)−Ct (house-keeping gene). A value of 1 means equal expression of target and house-keeping gene (L32). Oligo sequences (5′-3′):
Jurkat cells were cultured at 10^5/100 μl in U-bottom wells for 24-48 hrs with either DMSO or the indicated concentrations of digoxin (Sigma-Aldrich). […]

[1] = test system: BTLA expression in γδT cells and ILCs; assay: Cytokine-induced BTLA expression in cultured iLN γδT cells and PP ILCs; type: cell-based, mice; conditions: for BTLA induction in RORγt+ γδT cells after culture with activating cytokines: iLN lymphocytes of Rorc(t)gfp/+ mice enriched for CD27− γδT cells, FIG. 17A
Method: as §1
(§2) For IL-7 induced expansion iLN lymphocytes were cultured in RF10 media (RPMI+10% FBS, p/s, L-Glutamine) at 10^7/ml in 12-well plates for four days. For IL-7 induced BTLA expression iLN or PP lymphocytes were enriched for ILCs and CD27^− γδT cells and cultured in RF10 media in 24-well plates containing feeder adherent cells for two days. Following enrichment, cells from 3 animals were cultured in 1 ml in a single well. IL-7 (R&D Systems, Minneapolis, Minn.) was added at 10 ng/ml. For IL-17 and TNF production whole lymph node cells were cultured with or without 10 ng/ml IL-7 for 18 hours and then re-stimulated with PMA (50 ng/ml), ionomycin (750 ng/ml) and Golgi Stop™ (BD Biosciences) for 3.5 hours. TH17 differentiation was performed by isolating CD4^+ T cells from spleens and culturing in anti-CD3 (5 μg/ml) coated 24-well plates at 1.35×10^6/ml with anti-CD28 (2 μg/ml), IL-6 (20 ng/ml) and TGFβ1 (2 ng/ml). At day 5, cells were washed and re-stimulated with PMA+ionomycin and Golgi Stop™ (BD Biosciences) for 3.5 hours. For induction of human IL-22, tonsil lymphocytes were cultured in RF10 media at 1.5×10^6/ml in 24-well plates for 6 hours in the presence of 40 ng/ml IL-23 (eBiosciences) and 10 ng/ml IL-1β (R&D Systems). Golgi Stop™ (BD Biosciences) was added during the final 3 hours.
Jurkat cells were cultured at 10^5/100 μl in U-bottom wells for 24-48 hrs with either DMSO or the indicated concentrations of digoxin (Sigma-Aldrich). To test the effect of STAT5 in IL-7-induced BTLA expression, CD27^− gd T cells were enriched from lymph nodes of Rorc(t)^gfp/+ mice and cultured for two days in 24-well plates containing feeder adherent cells with no stimulus, or with IL-7 in the presence or absence of STAT inhibitor (EMD Millipore, Billerica, Mass.) at the indicated concentrations.

γδT cells [2] = assay: IL-17 and TNF production by lymph node γδT cells with or without IL-7; type: cell-based, mice; conditions: all γδT subsets, IL-7 10 ng/ml 18 hours then PMA/ionomycin; FIG. 5
Method: as §1
as §2, with “For induction of human IL-22, tonsil lymphocytes were cultured in RF10 media at 1.5×10^6/ml in 24-well plates for 6 hours in the presence of 40 ng/ml IL-23 (eBiosciences) and 10 ng/ml IL-1β (R&D Systems). Golgi Stop™ (BD Biosciences) was added during the final 3 hours.” left out

γδT cells [3] = assay: IL-7 induced expansion of iLN lymphocytes cultured ex vivo; type: cell-based, mice; conditions: IL-7 10 ng/ml, four days, vs untreated cultures; FIG. 4A
Method: as §2

[4] = iLN γδT cells and PP ILCs from Rorc(t)gfp/+ mice, IL-7 10 ng/ml, two days, vs untreated, FIG. 4G-K

## C[C@H]1O[C@@H](O[C@H]2[C@@H](O)C[C@H](O[C@H]3[C@@H](O)C[C@H](O[C@H]4CC[C@@]5(C)[C@H](CC[C@@H]6[C@@H]5C[C@@H](O)[C@]5(C)[C@@H](C7=CC(=O)OC7)CC[C@]65O)C4)O[C@@H]3C)O[C@@H]2C)C[C@H](O)[C@@H]1O [digoxin]
RORγt
  BTLA expression at the mRNA level: induced expression of BTLA
  BTLA expression at the protein level (surface expression): induced expression of BTLA

## IL-1β: cytokine, potent γδT cell activator
[1]
  BTLA induction in RORγt+ γδT cells after culture with activating cytokines: either no or only a minimal effect

B1: IL-7: cytokine IL-7 (R&D Systems), added at 10 ng/ml (protein, UniProt P13232 26-177, looked up)
Interleukin-7: DCDIEGKDGKQYESVLMVSIDQLLDSMKEIGSNCLNNEFNFFKRHICDANKEGMFLFRAARKLRQFLKMNSTGDFDLHLLKVSEGTTILLNCTGQVKGRKPAALGEAQPTKSLEENKSLKEQKKLNDLCFLKRLLQEIKTCWNKILMGTKEH
γδT cells [2]
  frequency of IL-17 expressing γδT cells: enhanced
  frequency of TNF expressing γδT cells: enhanced
γδT cells [3]
  viability of γδT cells within lymph node lymphocytes cultured ex vivo: sustained viability
[1]; [4]
  number of BTLA+ cells: induced a higher number
  surface BTLA expression: increased

B2: IL-23: cytokine, potent γδT cell activator (protein, UniProt Q9NPF7 20-189; P29460 23-328, looked up)
Interleukin-23 subunit alpha: RAVPGGSSPAWTQCQQLSQKLCTLAWSAHPLVGHMDLREEGDEETTNDVPHIQCGDGCDPQGLRDNSQFCLQRIHQGLIFYEKLLGSDIFTGEPSLLPDSPVGQLHASLLGLSQLLQPEGHHWETQQIPSLSPSQPWQRLLLRFKILRSLQAFVAVAARVFAHGAATLSP
Interleukin-12 subunit beta: IWELKKDVYVVELDWYPDAPGEMVVLTCDTPEEDGITWTLDQSSEVLGSGKTLTIQVKEFGDAGQYTCHKGGEVLSHSLLLLHKKEDGIWSTDILKDQKEPKNKTFLRCEAKNYSGRFTCWWLTTISTDLTFSVKSSRGSSDPQGVTCGAATLSAERVRGDNKEYEYSVECQEDSACPAAEESLPIEVMVDAVHKLKYENYTSSFFIRDIIKPDPPKNLQLKPLKNSRQVEVSWEYPDTWSTPHSYFSLTFCVQVQGKSKREKKDRVFTDKTSATVICRKNASISVRAQDRYYSSSWSEWASVPCS
[1]
  BTLA induction in RORγt+ γδT cells after culture with activating cytokines: either no or only a minimal effect
